# According to the domain aggregation screens of Martell et al. (2025):
# Assay: soluble fraction after stress (log2 fold change); higher = more stays soluble; pooled small domains, quantitative proteomics
# Settings: stress: 50 degC
# In short: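 Custom libraries of small protein domains were pooled and measured in a high-throughput format, with quantitative proteomics as the read-out. Each library was stressed at 50°C. The value is the log2 fold change in the amount of each protein that stays soluble after stress, used as a measure of aggregation propensity; higher values mean more of the protein stays soluble.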
row,Sequence,soluble fraction (log2)
1,HMIILDASASRAIGNGTIEETKWDFGNGESSTNRGGPIVERQIYANQAAYILKLSMKTNDGQLFTKEIQLL,-0.0666
2,HMIAVSQEQIKQIIVDDPSFHDANGKFSQALLTQYLNQRRMSEDQFVEEIRDQFLFQNLQNLVQNG,0.0233
3,HMERTQSIEAAREQLGEVTKDNVFETETLGALAILKENEPGEYAKIKADLKGKINMNDLERAVKKAAADQR,≥ 0.62
4,HMLKKGDQVYIISGKDKGKLGVVSQIVSEERILVDGINLAKKHVKPNPNKNETGGVVEKEMPIHASNVMI,-0.0911
5,HMTVDYDKFTKDTVVQHNKFGKGVIIMTSGDGEDKIASIAFQGLGVKRFSLAIAASNLKILGKVNED,-0.133
6,HMGSLVVVPNLVGQNYDEVKLSTKYSDFEIVQKNTEYSEAPAGQIIKQDPEAGTKVKKHSTINVTVSK,-0.354
7,HMGFAPEAAREEVAQLIGQRGRAVTVLRPSGQVEIAGRRFEATVEVGAVDAGDTIVVRGQTAFALLVEKAD,0.0301
8,HMPTITSPMVGTFYRAPSPGAAPFIEVGDTVKKGQVIGIIEAMKLLNEVEADKDGVVQAFAAENGEL,0.262
9,HMLNAPFGFRIEDDTLIPIPEEAKVVRQIFRYYLQGMGFGKIAQELNGQDVPGKPWGKERIKYILSNEKYI,-2.09
10,HMRLATSELVYRIRALIRDQELQPGERLGSERALAQSLGISRSDLRMALAVLEASHEVIRKIGRAGGIVVS,-3.14
11,HMQETKDEGAQVLLNKINALVAAVQGQIITPEEAAIKLATDGDLDLDVDARVAAIEEFNKKLSEAQNN,0.0497
12,HMRARTLSTTGGESLLTLAESLYPDDDRARARFIEATAAANPKLFADIAALTRVLPAGTTLRMPDLRA,0.0417
13,HMEVGDTYLGKVTRVSSFGAFIEVLPGKEGLMRQNDAGEGGMPEVGDEVMVRVMEVDHLGRINLSGKLDD,-0.0268
14,HMPMNISDIIKQAREELGMTQEDLAERLEVSRQAVSKWELGASVPSPENLRLLEELLGVELPAP,-0.0297
15,HMTPADEAGNDLDIGQTVKILRRVSEGQYEVSYRGTTWQARALNAQAAVEPSFAVIGGKEGNILLVHL,0.122
16,HMSGSGYAYVDKYGYSHVVKDYDTAKNYASDGNVYNYSGSHKGGYAYDADNYRVPLDLPGSKPYG,-0.0115
17,HMYEVVPNMKGLSYEQAATALRTAGLEPELSDSIYDDKTRPGTVLEQSPRANTKVKPGRTVYLTVNAF,0.0459
18,HMGSTVRIVVPAADIPAYKDIQPSDLEYREVPKDEISEDAVTDPQEVINKYSTSPLYAGWPINKNIIET,0.0298
19,HMDRVMPVPEALIGMRFDIAVSRMLGVSRSQAAAYIDRGQVSIAGRGSQRSAQKSEKLVQGDSIEVAIA,-0.318
20,HMEDSAKRHQIMDGARRVFMDLGFDGASMNEIARAAGVSKGTLYVYFTDKNRLFEAIVEQESL,-1.37
21,HMPNPSAGRVHIDALLPFDRVEVTDMQGSLLLDHSFSPRRAVDLDLNARGTLLYTLWSKGHLLGKGRVVR,0.0169
22,HMNRGITVIVNNEEIKMKEKAQYVVVDIFDYIDFDLTVPKGSINITLNGENTPYTASIKDGDVIEVFW,-0.266
23,HMPNQLLELVEMEIRDLLNEYEFPGDDTPIIQGSALKALEDPMGPWGDKIMDLMDAVDSYIPDPE,-0.581
24,HMSVPSVAAVREQTGLSQVKFASLLGVSVRTLQEWEQGRRAPSGAARTLLMVAAKNPQALLEV,-0.584
25,HMNRIARRELMEQLFADNKITTQEQLQQLLRAEGVEVTQATISRDMRILNIVKVSDQNGNTYYKQMK,-0.15

row,Sequence,soluble fraction (log2)
1,HMLDPYNVLGVPRDAGMDEIKKAYRKLSRTYHPDANIDNPNKAQAEEKFKQIQEAYQQIVKERTE,-0.384
2,HMVISNDEFEDYLNRATEQLVSELSSGKNPRDAVHDLALTFADQHNKSYDAYQRMADSLEARMHTL,0.0885
3,HMHMIDDYLARIGQLIRDARQHRGWTQVQLAEALGTSQSAVNRIERGNQNISLEMIARIGEALGSEIVSLG,-1.62
4,HMSSIGERISDVRKARGYTQDQLAERIHVSRQTISHWENERALPDFESIKQLSQVLGYDFSS,-0.00328
5,HMIDYTDTSAVKDSAAVAGRVREMINEGVPIADVNAFIRSASENGLISDDSARRLRYMNDSR,0.0307
6,HMNRLEFLQGLKAELEGRVPHSIIQENLRYYDSYISDEAAKGQSEEDVVESLGGPRIIARTIVDAA,0.134
7,HMSVIKERLTEFLTYKGIGQIKFAEAAGLSRGFVNVLGDGISSKSLNKISQAFPELNTLWLTTGEGEML,-1.91
8,HMLTALTDREEEILVLLAHNLSNKEIAKRLNLSVNTVRNHTSHIYEKLNVTSRRKAITLAQSLHLLPP,-1.35
9,HMGASYSQFLDQVDSGNVQKVAFGGDMRGGTSQLTYTTRGGQSSTITAPFDRDLINVLRTKNVEIVQEEP,0.139
10,HMPVASNRDVNLDIGERVFVQEWAPNRTARVQYRGSPWEARLAPGAPAAAGEHRVSAVEGNWLVLEPA,-0.0102
11,HMNLQGIISQKAIVTQTIEPYETGVAKLNGEEWTAMSKDETRIEAGKLVEVVAIEGVKLIVKEVS,-0.0794
12,HMEPVQFIQFKIPDGHPWSGQLLREVRLPPGTLVVLLKHDGKNIIPNGETPLLAGDSVILSAASPT,-0.197
13,HMADEIMYPVQVNGKVRAEIFVAADQSKNKELVLEMAKSEERVQKYLEEGNLIKEIFVPGRIVNLVI,0.0273
14,HMDSAFVSDIRDAFDEAGVDSYRFFGTHSFKRGGVQLYRLLGVSDQEIKERGHWQTFSAYFAYVQA,0.218
15,HMGLGQRIKARREALGLSQARLGEAVGVSLQAVSNWERDEYLPDTARLPLIARALGLTPGQLME,0.0172
16,HMTLSHAINRLRLNANMSQEQFAGLFHVSQQSVQKWESGDSVPELSKLIAIAKHFGISLDALILGN,-0.614
17,HMSSEQRSVLFPNLAETDKVAVIEALMAAGVNARVDSASGRVTVPSGDYYNSRAILAAQGLPTS,0.0696
18,HMTSEVLTNATIVKMVKAKLSDDIIIDEINNARVNFDVSPEGIKSLTAQNVTEPVIETMKKAVAAQESI,0.479
19,HMVEYIENINLSEKQKFIAHEILKEIRGRAIFLRDVGLDYLNLSRKAGTLSGGEAQRIRLATQIGSA,0.226
20,HMSEYLDIHMAMEKLNRKEQLFVHLRFYEGLTQSEIAQRLFTSQVQISRLEKSVLEKMRQILSK,-1.34
21,HMWSNTAVIDRIRQLHEEGQPISSQSVQVNHKSLYMAAIKRFRGWKRAVEAAGIDYRQIRLR,-1.92
22,HMRPRQDRSEETRDRILDAVVELIAERGLAGVSHRAVADRAGVSLSATSYYFGSKAELERAALEEHYRR,-0.709
23,HMEQKISVPALVGRDIEEILADTEVTGNFTIKEADKRVASNRPVGEVLEQDPGTGESAVKGTIITVTVSAG,0.0124
24,HMRWSDQKEIVTLSLDHVLVEKGRKTKEYSWREFRTFTAFEIKKSSKDQINLGFKSKGNTVIIGNF,-0.919
25,HMPKKLIWERTTSKLQLYITQDRYELKTPLMTIPFTSKSKMMVYLQQRYHLDMQEYRQIYDAG,-2.21

row,Sequence,soluble fraction (log2)
1,HMDAMQAFPNPTVDEIHFVTPTTGRVYNAHGQLVMVLKNAQLVNVRQWSAGQYVIVREDGYAVRWIK,-1.04
2,HMKELTYSDFRKAYPDIQGNLFGMAERYITALDWTEVAAKVETDEELRKERDIFYLVKTYIRKYVQ,-0.487
3,HMSRLQDAELQAQIDKMAGAMQLRDIPVYVQDIPTINGLAAPDGRVFITQGFIDKYKLGEVSAGEIASVI,0.36
4,HMDVQPTTTKTMFYTVQQGETLFSISRKFGISVEEITKKNPLASSGLTVGMELLLPEKKEINSTIQS,0.265
5,HMDLRVKRTNKMIMEAFIHLVEQKGYDNITVQEIADEAMINRATFYAHFKDKQDLYDHIFKQAI,-0.762
6,HMKNYYRILGLNIDAEYEEIKAAYRILAQRHHPDKGGAAAEFRLIQEAYDILSNPLTKRNYDADLLATLN,-0.521
7,HMAPPDFTTFMRNYQDMVYSTAVRLIGNETQAEDIAQEVFIKAHAHFENLRTSPSAGGWLKTVATNLSIN,-0.997
8,HMEGDAFAFTGDIQKDLLSITAVHPMRREAVDALIAKAGASWAIVEKLLAHGELTEAKHDGHLFYLRKF,-0.81
9,HMGWEPTPVLVAARDISGGTVLDQDMLRVEAIPSRLVTPSIVRSDLLASVQDAKLLLPMKQGDLLNFNMLQ,-0.064
10,HMLPNIKSEMEILGDNAKARLEAAELWSKKYLSNEAYDTMSKLATTADGVKAIEEIMNITKS,-0.0779
11,HMSGVIVPDIYNKTLAEAVASLEGEGFSTEKKEGYSDTVPKGNVMSQKPEAGTSAERGSTVTITISQGPQ,-0.0107
12,HMQAGPEDIIRAKLKTAMPEAQIISIRPTPAGLYQVNAKGYESVFVTADGRYLFQGDLLEIQGDRIVNL,-0.123
13,HMSDSISLTLNGDLRRFRAHATIADLVRDIGLDPVKVAVERNLEIVSRSTLEDVVLADGDRLEIVHFV,-1.33
14,HMATIIGSIGIVTQKVGLTGVPGRVYVNNESWAAISANGKEIENDTQVIVVKIDGATLIIEKKG,-1.47
15,HMPIRMLQVQKTNTGYLNVRDTPSVSGALIGKVFPGDMLSSTEERDGWFLVAVPQGGTGWVSGDYVKTTS,-0.0387
16,HMENLQLQQLVKGLPEKMQEIVILRFSQELTMREIADIVNLPMRTVQSQLRLALKILKKEMG,-0.447
17,HMNIFAHQIGKLRTERHLSQTDVAKRLYVSRQAVSKWENGDAEPSLDNLIALAKLFNVSLDNLITGQ,-0.49
18,HMFGSKDVKRAIEDYAAAMSSQPRALSAPQRKVLIRHLATSGLLQLRGAAKIVADELGISRASVYNALKV,-0.436
19,HMTVEVFQSLVQTFREMSPRKAASILEELKRDLAVEILLHMPEDGVAAILARMDPARAARLTEQLALEKD,-0.979
20,HMDPIATLTPREREVLSLMAEGRSNGAIAAALVVGDGAVEKHVSNIFQKLELTPAEGDHRRVLAVLRWLE,-0.901
21,HMKDRDISNAVLNILSKDSDHNYNYKQIASVLGVKDPFVRKRIVSVLAQLTKNGQLEEISRGKYQIKN,-0.618
22,HMAIKWTPEIEDEVSNKLKEKWSPEQISAWLKKNKSIMISHQRIYQFIVEDKMSGGNLYRNLRQ,-0.695
23,HMGGRRHANMSREEEAAFLAPFFEKAAQGGILVVREIRQALDAHLGRTVPLSTVYNLLHRHNWRKL,-2.71
24,HMSAEVMLRRLIDENDPSSENARYILAVMLERKKILAPVDVKNEKKSKMLFYEHQKTGEAFIVRDP,-0.267
25,HMEATVGSRVRLARIGLTLTQKQLAQAVGVSANHLAMVERGSKHASEDLLQRIATATHTTYEWLMGTSEHQ,-0.845
